Assay results taken from paper PMC8440579.

Biological target: YukE with nsAA 2 (p-azidophenylalanine) incorporated at position 44, YukE(W44TAG) (B. subtilis) (UniProt C0SP85)
Test: cross-linking; in vivo photo-crosslinking through p-azidophenylalanine (nsAA 2) in B. subtilis cells resuspended in 1x PBS, UV 365 nm for 15 min or 60 min on ice; lysates on 17% SDS-PAGE without reductant, anti-YukE immunoblot

- crosslinking efficiency: 100%
- stoichiometry N: 2
Substance: YukE with nsAA 2 (p-azidophenylalanine) incorporated at position 44, YukE(W44TAG) (from UniProt C0SP85 1-97) (natural protein)
